In PMC3145628, “A Rice Plastidial Nucleotide Sugar Epimerase Is Involved in Galactolipid Biosynthesis and Improves Photosynthetic Efficiency” (PLoS Genetics, 2011) one finds Km data, which are given here for 1 protein.

For orientation: Km means the substrate concentration at which the rate is half of its maximum.

Substrate in the series: O=c1ccn([C@@H]2O[C@H](COP(=O)(O)OP(=O)(O)O[C@H]3O[C@H](CO)[C@H](O)[C@H](O)[C@H]3O)[C@@H](O)[C@H]2O)c(=O)[nH]1
Briefly: purified protein. The class given is biochemical, Oryza sativa. The settings on record: 30°C, 100 mM glycine buffer pH 8.7, 1 mM NAD+, UDP-Gal varied 0.4-3.2 mM.

B1: PHD1 (PHOTO… …1) (Oryza sativa Japonica Group) (protein)
chain: DDTGVKMAGSDIVGKNDLLIVGPGVLGRLVAEKWQEEHPGCKVFGQTASTDHHNELSNIGIIPSLKGSTFPQKVPYVIFCAPPSRSDDYPGDVRVAASNWTGEGSFVFTSSTALYDCSDNELCNEDCPSVPIGRSPRTDVLLKAENVVLEAGGCVLRLAGLYKIDRGAHFFWLRKGTLDTRPDHIINQIHYEDAASLAIAIMKKGHRGRIFLGCDNKPLSRQEIMDSVNRSGKFDTKFQGFTGTDGPLGKKMENSRTRSEIGWEPKYPSFTEFLGLDS
notes: mature protein without putative N-terminal 62-aa chloroplast transit peptide (full length 340 aa); expressed in E. coli; pGEX-4T-1 (GST) in BL21(DE3), glutathione Sepharose purified (described for antibody production)
Consider B1, for which the Km is 840 µM.
